{
  "source": "patent US20210054076A1",
  "about": "(Chugai, published 2021)",
  "molecules": {"B1": {"name": "CH02/CD3 (bispecific antibody, human IgG1, kappa, N297A)", "heavy 1": "EVQVEQSGLELVKPGASVKISCKTSGYTFTEYTMHWVKQSHGKSLEWIGGINPNNGNTRYNQKFKDKATLTVDKSSRTAYMELHTLTSEDSAVYYCARCGDYDLFFFFAYWGQGTLVTVSAASTKGPSVFPLAPSSKSTSGGTAALGCLVKDYFPEPVTVSWNSGALTSGVHTFPAVLQSSGLYSLSSVVTVPSSSLGTQTYICNVNHKPSNTKVDKKVEPKSCDKTHTCPPCPAPELRGGPKVFLFPPKPKDTLMISRTPEVTCVVVDVSHEDPEVKFNWYVDGVEVHNAKTKPREEQYASTYRVVSVLTVLHQDWLNGKEYKCKVSNKALPAPIEKTISKAKGQPREPQVYTLPPSREEMTKNQVSLTCLVKGFYPSDIAVEWESNGQPENNYKTTPPYLDSDGSFFLYSKLTVDKSRWQQGNVFSCSVMHEALHNHYTQESLSLSP", "light 1": "DIVMTQFQKFMSTSVGDRVSVTCKASQNVGTNVAWYQQKPGQSPEALISSASSRFSGVPDRFTGSGSGTDFTLTITNVQSEDLADYFCQQYNSFPFTFGSGTELEIKRTVAAPSVFIFPPSDEQLKSGTASVVCLLNNFYPREAKVQWKVDNALQSGNSQESVTEQDSKDSTYSLSSTLTLSKADYEKHKVYACEVTHQGLSSPVTKSFNRGEC", "heavy 2": "QVQLVESGGGVVQPGGSLRLSCAASGFTFSNAWMHWVRQAPGKGLEWVAQIKDKSQNYATYVAESVKGRFTISRADSKNSIYLQMNSLKTEDTAVYYCRYVHYAAGYGVDIWGQGTTVTVSSASTKGPSVFPLAPSSKSTSGGTAALGCLVKDYFPEPVTVSWNSGALTSGVHTFPAVLQSSGLYSLSSVVTVPSSSLGTQTYICNVNHKPSNTKVDKKVEPKSCDKTHTCPPCPAPELRGGPKVFLFPPKPKDTLMISRTPEVTCVVVDVSHEDPEVKFNWYVDGVEVHNAKTKPREEQYASTYRVVSVLTVLHQDWLNGKEYKCKVSNKALPAPIEKTISKAKGQPREPQVYTLPPSRKEMTKNQVSLTCLVKGFYPSDIAVEWESNGQPENNYKTTPPYLDSDGSFFLYSKLTVDKSRWQQGNVFSCSVMHEALHNHYTQKSLSLSP", "light 2": "DIVMTQSPLSLPVTPGEPASISCRSSQPLVHSNRNTYLHWYQQKPGQAPRLLIYKVSNRFSGVPDRFSGSGSGTDFTLKISRVEAEDVGVYYCGQGTQVPYTFGQGTKLEIKRTVAAPSVFIFPPSDEQLKSGTASVVCLLNNFYPREAKVQWKVDNALQSGNSQESVTEQDSKDSTYSLSSTLTLSKADYEKHKVYACEVTHQGLSSPVTKSFNRGEC", "notes": "Made by Fab arm exchange of the bivalent anti-CLDN6 antibody CH02 with the bivalent anti-CD3 antibody CD3-1; human IgG1 constant region; One anti-CLDN6 arm and one anti-CD3 arm; also called CLDN6-TRAB; CLDN6-targeted T-cell redirecting bispecific antibody"}},
  "key": {"[1]": {"biological_target": "T1, human CLDN6 (human, UniProt P56747 1-220)", "T1 sequence": "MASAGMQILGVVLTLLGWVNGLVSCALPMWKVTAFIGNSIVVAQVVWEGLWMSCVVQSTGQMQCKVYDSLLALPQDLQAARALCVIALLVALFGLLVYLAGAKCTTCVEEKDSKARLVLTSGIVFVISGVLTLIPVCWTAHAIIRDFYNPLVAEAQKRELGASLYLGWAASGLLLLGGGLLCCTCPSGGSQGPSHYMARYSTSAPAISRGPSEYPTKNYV", "assay": "FACS on Ba/F3 transfectant, antibody 20 micro g/ml, FITC anti-human IgG", "experimental": "(§1) To evaluate the binding activity and specificity of the generated CLDN6-TRABs against CLDN6 and other Claudin family antigens, FACS analysis was conducted as follows. Ba/F3 transfectants stably express a kind of protein selected from human CLDN3 (hCLDN3), human CLDN4 (hCLDN4), human CLDN6 (hCLDN6), human CLDN9 (hCLDN9), mouse CLDN3 (mCLDN3), mouse CLDN4 (mCLDN4) and mouse CLDN6 (mCLDN6), were generated using similar method described in WO2008/087978, and named BaF3_hCLDN3, BaF3_hCLDN4, BaF3_hCLDN6, BaF3_hCLDN9, BaF3 mCLDN3, BaF3 mCLDN4, BaF3 mCLDN6, respectively. Each of the CLDN6-TRABs (CH01/CD3, CH02/CD3, CH03/CD3, CH04/CD3) was incubated with the Ba/F3 transfectants at an antibody concentration of 20 micro g/ml in FACS buffer (0.5% BSA containing autoMACS Rinsing Solution, Miltenyl Biotec). Binding activities of each CLDN6-TRAB to the Claudin family proteins (hCLDN3, hCLDN4, hCLDN6, hCLDN9, mCLDN3, mCLDN4, mCLDN6) were examined by incubation of FITC-conjugated goat anti human IgG (BeckmanCoulter), represented as Geo-mean value. Sample processing was conducted on FACSVerse (BD).\n(§2) Claudin family proteins have two extracellular domains. The sequence of the first extracellular domain in human CLDN9 is almost the same compared with the first extracellular domain of human CLDN6. For the second extracellular domain of human CLDN9, there are only two amino acids different from the ones at their corresponding positions in human CLDN6 (FIG. 2). The glutamine at position 156 of human Claudin 6 (position 156 in the sequence shown in SEQ ID NO: 44 or 45) was substituted to leucine to make a human CLDN6 mutant comprising the same amino acid as human Claudin 9 at position 156. This human CLDN6 mutant was named as hCLDN6(Q156L) (SEQ ID NO: 53). Ba/F3 transfectant stably express hCLDN6(Q156L) was generated using similar method described in WO2008/087978. The established Ba/F3 transfectant was named BaF3_hCLDN6(Q156L). Binding activity of the generated CLDN6-TRABs against BaF3_hCLDN6(Q156L) was measured using the above mentioned FACS method and the results are shown in FIG. 1 and Table 3."}, "[2]": {"biological_target": "T2, human CLDN4 (human, UniProt O14493 1-209)", "T2 construct": "whole, on cells; also called hCLDN4; BaF3_hCLDN4", "T2 sequence (looked up)": "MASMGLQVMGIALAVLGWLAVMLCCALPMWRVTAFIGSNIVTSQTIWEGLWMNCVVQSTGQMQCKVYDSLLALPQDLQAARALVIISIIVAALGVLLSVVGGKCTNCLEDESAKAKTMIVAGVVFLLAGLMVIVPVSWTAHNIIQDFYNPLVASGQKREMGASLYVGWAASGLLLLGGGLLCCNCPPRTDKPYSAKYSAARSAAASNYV", "assay": "FACS on Ba/F3 transfectant, antibody 20 micro g/ml, FITC anti-human IgG", "experimental": "as §1, §2"}, "[3]": {"biological_target": "T3, hCLDN6(Q156L) (human, UniProt P56747 1-220)", "T3 construct": "Stably expressed on Ba/F3 cells; also called human CLDN6 mutant; BaF3_hCLDN6(Q156L)", "T3 chain": "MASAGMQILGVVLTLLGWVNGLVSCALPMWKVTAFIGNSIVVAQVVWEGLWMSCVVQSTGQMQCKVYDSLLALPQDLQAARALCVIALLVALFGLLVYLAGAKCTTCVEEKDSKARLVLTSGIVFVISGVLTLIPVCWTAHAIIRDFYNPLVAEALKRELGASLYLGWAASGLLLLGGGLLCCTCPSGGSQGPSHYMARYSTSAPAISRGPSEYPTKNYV", "assay": "FACS on Ba/F3 transfectant, antibody 20 micro g/ml, FITC anti-human IgG", "experimental": "as §1, §2"}, "[4]": {"biological_target": "T4, mouse CLDN3 (mouse, UniProt Q9Z0G9 1-219)", "T4 construct": "whole, on cells; also called mCLDN3; BaF3_mCLDN3", "T4 sequence (looked up)": "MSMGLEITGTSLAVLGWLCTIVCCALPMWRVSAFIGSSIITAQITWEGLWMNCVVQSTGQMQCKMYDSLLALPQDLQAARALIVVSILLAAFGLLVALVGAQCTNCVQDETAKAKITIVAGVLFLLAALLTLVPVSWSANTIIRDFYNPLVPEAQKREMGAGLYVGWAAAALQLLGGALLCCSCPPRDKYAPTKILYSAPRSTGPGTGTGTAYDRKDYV", "assay": "FACS on Ba/F3 transfectant, antibody 20 micro g/ml, FITC anti-human IgG", "experimental": "as §1, §2"}, "[5]": {"biological_target": "T5, mouse CLDN6 (mouse, UniProt Q9Z262 1-219)", "T5 construct": "whole, on cells; also called mCLDN6; BaF3_mCLDN6", "T5 sequence (looked up)": "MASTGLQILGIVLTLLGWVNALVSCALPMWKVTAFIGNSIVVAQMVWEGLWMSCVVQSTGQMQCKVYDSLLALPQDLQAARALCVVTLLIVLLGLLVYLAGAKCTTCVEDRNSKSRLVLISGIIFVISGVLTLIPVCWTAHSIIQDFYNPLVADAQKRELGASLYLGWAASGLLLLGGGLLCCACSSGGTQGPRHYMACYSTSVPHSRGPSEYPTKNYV", "assay": "FACS on Ba/F3 transfectant, antibody 20 micro g/ml, FITC anti-human IgG", "experimental": "as §1, §2"}, "[6]": {"biological_target": "T6, human CLDN3 (human, UniProt O15551 1-220)", "T6 construct": "whole, on cells; also called hCLDN3; BaF3_hCLDN3", "T6 sequence (looked up)": "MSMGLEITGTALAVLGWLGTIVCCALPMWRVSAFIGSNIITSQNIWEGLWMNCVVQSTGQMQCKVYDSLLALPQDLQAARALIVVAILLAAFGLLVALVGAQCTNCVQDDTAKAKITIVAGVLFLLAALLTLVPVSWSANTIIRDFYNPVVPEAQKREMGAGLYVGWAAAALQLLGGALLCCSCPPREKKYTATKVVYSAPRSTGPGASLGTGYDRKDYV", "assay": "FACS on Ba/F3 transfectant, antibody 20 micro g/ml, FITC anti-human IgG", "experimental": "as §1, §2"}, "[7]": {"biological_target": "T7, human CLDN9 (human, UniProt O95484 1-217)", "T7 construct": "whole, on cells; also called hCLDN9; BaF3_hCLDN9", "T7 sequence (looked up)": "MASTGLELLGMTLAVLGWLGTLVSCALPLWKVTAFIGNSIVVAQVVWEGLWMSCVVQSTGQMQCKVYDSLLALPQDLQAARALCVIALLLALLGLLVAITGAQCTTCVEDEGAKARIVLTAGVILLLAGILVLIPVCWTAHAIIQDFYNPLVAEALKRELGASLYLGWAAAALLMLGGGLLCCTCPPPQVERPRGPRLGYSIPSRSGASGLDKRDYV", "assay": "FACS on Ba/F3 transfectant, antibody 20 micro g/ml, FITC anti-human IgG", "experimental": "as §1, §2"}, "[8]": {"biological_target": "T8, mouse CLDN4 (mouse, UniProt O35054 1-210)", "T8 construct": "whole, on cells; also called mCLDN4; BaF3_mCLDN4", "T8 sequence (looked up)": "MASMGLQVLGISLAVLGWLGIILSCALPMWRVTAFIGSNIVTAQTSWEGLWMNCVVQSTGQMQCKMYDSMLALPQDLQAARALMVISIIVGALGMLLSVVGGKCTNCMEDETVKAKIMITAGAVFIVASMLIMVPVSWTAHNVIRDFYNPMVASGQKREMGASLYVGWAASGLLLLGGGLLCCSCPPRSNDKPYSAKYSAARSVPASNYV", "assay": "FACS on Ba/F3 transfectant, antibody 20 micro g/ml, FITC anti-human IgG", "experimental": "as §1, §2"}, "[9]": {"biological_target": "T1, human CLDN6", "assay": "cell-based or functional assay"}, "[10]": {"biological_target": "T1, human CLDN6", "assay": "cell-based or functional assay", "remark": "listed apart in the source"}},
  "data": [
    {"molecule": "isotype control (antibody)", "values": [
      {"measurement": "Geo-mean value of FACS", "setting": "[1]", "result": 29},
      {"measurement": "Geo-mean value of FACS", "setting": "[2]", "result": 42},
      {"measurement": "Geo-mean value of FACS", "setting": "[3]", "result": 62},
      {"measurement": "Geo-mean value of FACS", "setting": "[4]", "result": 29},
      {"measurement": "Geo-mean value of FACS", "setting": "[5]", "result": 43},
      {"measurement": "Geo-mean value of FACS", "setting": "[6]", "result": 78},
      {"measurement": "Geo-mean value of FACS", "setting": "[7]", "result": 96},
      {"measurement": "Geo-mean value of FACS", "setting": "[8]", "result": 31}
    ]},
    {"molecule": "B1", "values": [
      {"measurement": "Geo-mean value of FACS", "setting": "[1]", "result": 4740},
      {"measurement": "Geo-mean value of FACS", "setting": "[2]", "result": 35},
      {"measurement": "Geo-mean value of FACS", "setting": "[3]", "result": 69},
      {"measurement": "Geo-mean value of FACS", "setting": "[4]", "result": 27},
      {"measurement": "Geo-mean value of FACS", "setting": "[5]", "result": 1760},
      {"measurement": "Geo-mean value of FACS", "setting": "[6]", "result": 37},
      {"measurement": "Geo-mean value of FACS", "setting": "[7]", "result": 84},
      {"measurement": "Geo-mean value of FACS", "setting": "[8]", "result": 22},
      {"measurement": "EC50 (read off the curve), Jurkat/NFAT-RE luciferase reporter, target cells PA-1", "setting": "[9]", "result": "~0.03", "unit": "nM"},
      {"measurement": "EC50 (read off the curve), Jurkat/NFAT-RE luciferase reporter, target cells ABC-1", "setting": "[10]", "result": "~0.05", "unit": "nM"}
    ]}
  ]
}
